According to article PMC12714742, “A small periplasmic protein governs broad physiological adaptations in Vibrio cholerae via regulation of the DbfRS two-component system” (Nature Communications, 2025):

B1: DbfQ, processed (residues 32 to 135, excluding the secretion signal), 6×His tag cleaved (natural protein)
chain: DNKVRDWEQGSYREGTQIEIDEDQDDVYRAVQKGLIRPFAELYATVDQQLNGRLIKVELDEDDDEWIYELKLVYDNQVFRVEYNAATLELMSIRGRNVIRAIKK
modifications: in the MST experiments only: covalently labeled with an amine-reactive Red-NHS dye
notes: DbfQ, small periplasmic PepSY-domain protein of Vibrio cholerae (135-amino-acid precursor, gene vc_1637); processed form, residues 32 to 135 without the secretion signal; also called cleaved DbfQ; DbfQ (6×His tag-cleaved)
B2: DbfS sensory domain, DbfS^SD-6×His (residues 43 to 171) (domain or fragment)
chain: NLIHQYLLEDVQNQLQLSMDEITANLEANPQGQLTLTTRLADPRFTQPYSGLYWSATLGDQTLRSRSLWDRFLTEETHVHGTIYLGAKEESLIVLKRTVYLPEFSQPITITIGLDDAPLKATLQRVSKE
notes: DbfS, sensor histidine kinase of the DbfRS two-component system of Vibrio cholerae (gene vc_1639); periplasmic sensory domain, residues 43 to 171; The vector is pET-15b; also called unlabeled DbfS; VC_1639; source: E. coli BL21 (DE3), pET-15b, purified (Ni-NTA)

Key:
[1] = target: B2; test: MST; Red-NHS-labeled DbfQ constant at 20 nM, unlabeled DbfS 0.49 nM to 16,105 nM; buffer M (20 mM MES, 100 mM NaCl, 10% glycerol) with 0.05% Tween 20, pH 7.5, 25 °C; 1:1 binding model (PALMIST); conditions: both partners purified
[2] = target: B1; test: MST; titration to saturation for stoichiometry: DbfQ-NHS 100 nM, unlabeled DbfS 0 nM to 40,000 nM, 25 °C; conditions: both partners purified

Row | Binder | Kd [1] [nM] | stoichiometry N [2]
1 | B1 | 30 | –
2 | B2 | – | 1
